Results taken from patent US9951335B2, “Compositions and methods for treating otitis media and other conditions with inhibitors of CYLD” (Georgia State University Research Foundation, Inc., priority 2012, dated 2018).

What was measured:
TGF-β-signalling [1] = test: TGF-β-induced SBE-promoter activity in mouse MEF cells; assay type: cell-based
Procedure: (§1) The expression plasmids Flag-WT-CYLD, HA-WT-CYLD, Flag-H/N-CYLD, HA-C/S-CYLD, Flag-WT-Smad3, C/A-TβRI, and the reporter plasmids SBE-Luc, PAI-1-Luc, and NF-κB-Luc were previously described. Flag-WT-Akt1, pRK5-HA-Ub WT, pRK5-HA-Ub K63, and pRK5-HA-Ub K48 were from Addgene, and K to R mutants of Akt were generated with WT-Akt1 using QuickChange XL Site-Directed Mutagenesis kit (Stratagene). All transient transfections were carried out using TransIT-LT1 reagent (Minis) or Lipofectamine (Invitrogen) according to manufacturers' instructions.

TGF-β-signalling [2] = test: SBE-Luc activity in TβR-deficient DR26 and R1B cells; assay type: cell-based, mink
Text: Having identified CYLD as a negative regulator of TGF-β-signalling and lung fibrosis, we next sought to determine how CYLD inhibits TGF-β-signalling. TGF-β-ligands bind to a type II receptor (TβRII), which recruits and phosphorylates a type I receptor (TβRI). The activated TβRI then phosphorylates the Smad subgroup known as receptor-activated Smads (R-Smad), for example, Smad3, which can bind to Co-Smad Smad4. The R-Smad and Co-Smad complex then undergoes nuclear translocation for target gene regulation. To first determine at which level CYLD inhibits TGF-β-signalling, we took advantage of the available lung epithelial cell lines, DR26 and R1B that are derived from the WT Mv1Lu cells and lack functional […] TβRI, respectively. […] We next determined whether CYLD exerts its inhibitory effect on TGF-β-signalling at the level or downstream of TβRI by assessing the effects of siCYLD on WT-Smad3-induced SBE-Luc activity in TβRI-deficient R1B cells. […] To further determine whether CYLD inhibits TGF-β-signalling by likely targeting Smad3, we next evaluated the effect of CYLD knockdown in Smad3-deficient MEF cells.
A549, HeLa and HEK293 cells were maintained in the F12-K, minimal essential medium Eagle's with Earle's balanced salt solution (EMEM), and DMEM […]. […]

PAI-1 = test: TGF-β-induced PAI-1 expression (promoter activity, mRNA) in human cells; assay type: cell-based; settings: A549 and HeLa cells
Procedure: Total RNA was isolated using TRIzol reagent following the manufacturer's instructions. Synthesis of complementary DNA from total RNA was performed with MultiScribe reverse transcriptase. Real-time quantitative PCR was performed using an ABI 7500 Sequence Detection System (Applied Biosystems). Relative quantities of mRNAs were calculated using the comparative threshold cycle method and normalized using human and mouse glyceraldehyde-3-phosphate dehydrogenase as an endogenous control. The primer sequences for mouse COL1A2, COL3A1, CTGF and PAI-1, and human PAI-1, CHIP, and Smad3 are as follows. Mouse CTGF: 5′-[…]-3′ (SEQ ID NO:1) and 5′-[…]-3′ (SEQ ID NO:2); mouse COL1A2: 5′-[…]-3′ (SEQ ID NO:3) and 5′-[…]-3′ (SEQ ID NO:4); mouse COL3A1: 5′-[…]-3′ (SEQ ID NO:5) and 5′-[…]-3′ (SEQ ID NO:6); mouse PAI-1: 5′-[…]-3′ (SEQ ID NO:7) and 5′-[…]-3′ (SEQ ID NO:8); human PAI-1: 5′-[…]-3′ (SEQ ID NO:9) and 5′-[…]-3′ (SEQ ID NO:10); human CHIP: 5′-[…]-3′ (SEQ ID NO:11) and 5′-[…]-3′ (SEQ ID NO:12).
as §1

B1: siCYLD: RNA-mediated interference for downregulating CYLD expression using pSuper-CYLD, SEQ ID NO:13 (nucleic acid)
chain: GATCCCCGAGCTACTGAGGACAGAAATTCAAGAGATTTCTGTCCTCAGTAGCTCTTTTTGGAAA
modifications: expressed from pSuper vector
- SBE-Luc activity in the absence of Smad3 (TGF-β-signalling [1]; Smad3-deficient MEF cells): did not enhance
- SBE-Luc activity in cells reconstituted with WT-Smad3 (TGF-β-signalling [1]; Smad3-deficient MEF cells + WT-Smad3): markedly enhanced
- WT-Smad3-induced SBE-Luc activation (TGF-β-signalling [2]; TβRI-deficient R1B cells): markedly enhanced
- constitutively active (C/A)-TβRI-induced SBE-Luc activity (TGF-β-signalling [2]; TβRII-deficient DR26 cells): markedly enhanced
- TGF-α-responsive PAI-1 promoter activity (PAI-1): markedly enhanced
- PAI-1 messenger RNA (PAI-1; TGF-β stimulated): markedly enhanced
